Data as given in PMC10543557.

Target: FAM-labeled recombinant full-length SARS-CoV-2 Nsp1 (SARS-CoV-2-Nsp1_C-51-V) (SARS-CoV-2) (UniProt P0DTD1)
Assay: fluorescence polarisation

Substance “40S ribosomal subunit purified from rabbit reticulocyte lysate (from UniProt G1TNM3 1-243; G1SWM1 1-292) (complex)” has a Kd of 30 nM.
